Results: IntAct's records for PubMed 16083881

B1: Serine/threonine-protein phosphatase 5 (Mus musculus), Q60676 (parent)
chain: MAMAEGERTECAETPRDEPPADGTLKRAEELKTQANDYFKAKDYENAIKFYSQAIELNPGNAIYYGNRSLAYLRTECYGYALGDATRAIELDKKYIKGYYRRAASNMALGKFRAALRDYETVVKVKPNDKDAKMKYQECSKIVKQKAFERAIAGDEHRRSVVDSLDIESMTIEDEYSGPKLEDGKVTITFMKDLMQWYKDQKKLHRKCAYQILVQVKEVLCKLSTLVETTLKETEKITVCGDTHGQFYDLLNIFELNGLPSETNPYIFNGDFVDRGSFSVEVILTLFGFKLLYPDHFHLLRGNHETDNMNQIYGFEGEVKAKYTAQMYELFSEVFEWLPLAQCINGKVLIMHGGLFSEDGVTLDDIRKIERNRQPPDSGPMCDLLWSDPQPQNGRSVSKRGVSCQFGPDVTKAFLEENQLDYIIRSHEVKAEGYEVAHGGRCVTVFSAPNYCDQMGNKASYIHLQGSDLRPQFHQFTAVPHPNVKPMAYANTLLQLGMM
partner: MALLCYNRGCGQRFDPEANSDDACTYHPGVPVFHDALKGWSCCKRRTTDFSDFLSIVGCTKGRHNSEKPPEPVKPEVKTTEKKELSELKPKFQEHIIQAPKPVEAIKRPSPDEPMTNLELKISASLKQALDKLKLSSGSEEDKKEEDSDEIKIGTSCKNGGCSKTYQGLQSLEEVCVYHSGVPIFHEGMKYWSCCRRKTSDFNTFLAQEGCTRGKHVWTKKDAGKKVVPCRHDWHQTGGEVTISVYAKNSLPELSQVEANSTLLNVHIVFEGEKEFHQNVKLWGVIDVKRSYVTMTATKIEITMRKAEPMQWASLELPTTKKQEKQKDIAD

Variants of: B1
Conditions: with chrd1_mouse Chordc1, Q9D1P4

effect of a mutation on the interaction	Variant
disrupting interaction	MAMAEGERTECAETPRDEPPADGTLKRAEELKTQANDYFKAKDYENAIKFYSQAIELNPGNAIYYGNRSLAYLRTECYGYALGDATRAIELDKKYIKGYYARAASNMALGKFRAALRDYETVVKVKPNDKDAKMKYQECSKIVKQKAFERAIAGDEHRRSVVDSLDIESMTIEDEYSGPKLEDGKVTITFMKDLMQWYKDQKKLHRKCAYQILVQVKEVLCKLSTLVETTLKETEKITVCGDTHGQFYDLLNIFELNGLPSETNPYIFNGDFVDRGSFSVEVILTLFGFKLLYPDHFHLLRGNHETDNMNQIYGFEGEVKAKYTAQMYELFSEVFEWLPLAQCINGKVLIMHGGLFSEDGVTLDDIRKIERNRQPPDSGPMCDLLWSDPQPQNGRSVSKRGVSCQFGPDVTKAFLEENQLDYIIRSHEVKAEGYEVAHGGRCVTVFSAPNYCDQMGNKASYIHLQGSDLRPQFHQFTAVPHPNVKPMAYANTLLQLGMM [R101A]

Variants of: B1
Conditions: with chrd1_mouse Chordc1, Q9D1P4
Remark: another data set of the same source

effect of a mutation on the interaction	Variant
disrupting interaction	MAMAEGERTECAETPRDEPPADGTLKRAEELATQANDYFKAKDYENAIKFYSQAIELNPGNAIYYGNRSLAYLRTECYGYALGDATRAIELDKKYIKGYYRRAASNMALGKFRAALRDYETVVKVKPNDKDAKMKYQECSKIVKQKAFERAIAGDEHRRSVVDSLDIESMTIEDEYSGPKLEDGKVTITFMKDLMQWYKDQKKLHRKCAYQILVQVKEVLCKLSTLVETTLKETEKITVCGDTHGQFYDLLNIFELNGLPSETNPYIFNGDFVDRGSFSVEVILTLFGFKLLYPDHFHLLRGNHETDNMNQIYGFEGEVKAKYTAQMYELFSEVFEWLPLAQCINGKVLIMHGGLFSEDGVTLDDIRKIERNRQPPDSGPMCDLLWSDPQPQNGRSVSKRGVSCQFGPDVTKAFLEENQLDYIIRSHEVKAEGYEVAHGGRCVTVFSAPNYCDQMGNKASYIHLQGSDLRPQFHQFTAVPHPNVKPMAYANTLLQLGMM [K32A]
